From the supplement of paper PMC10126150
± gives the standard deviation of the averaged measurements.

Test system: ATP
Assay: switch fluorescence ratio, 500 uM ATP over buffer (Cy3 cluster intensity, sum of 5 cycles each) (fold (ratio)); higher = stronger signal-on switching upon ATP binding; sequences stand for … in TCGTCGGCAGCGTCAGATGTGTATAAGAGACAGTTTTTTTTTTTTTTTTTTTTTTTTT…TC
Conditions: aptamer strand: ATP DNA aptamer (quencher-CACCTGGGGGAGTATTGCGGAGGAAGG + anchor), 100 nM annealed; ATP concentration: 500 uM
In short: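 Cy3-labelled switching-strand clusters on a modified Illumina MiSeq flow-cell were annealed to 100 nM quencher-labelled ATP aptamer, imaged in selection buffer, then imaged after 15 min with 500 uM ATP at 22 °C. Five buffer/ATP cycles ran, with NaOH stripping and re-annealing between them. The fluorescence ratio is summed target-cycle over summed buffer-cycle Cy3 intensity per cluster, averaged per switch-domain sequence. Clusters outside 100-1000 RFU were excluded.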
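Note: ATP exposure 15 min at 22 °C before imaging.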

Sequence | switch fluorescence ratio
TTGTCTAGGG | 0.98 ± 0.033
TTGTCTAGGT | 1.01 ± 0.013
TTGTGACAGT | 1.01 ± 0.024
TTGTGACGGG | 1 ± 0.023
TTGTGATAGC | 1.05 ± 0.075
TTGTGATTGC | 1.03 ± 0.089
TTGTGCGAAA | 1.01 ± 0.059
TTGTGCGCGG | 1.04 ± 0.019
TTGTGCGGAC | 1.01 ± 0.04
TTGTGCGTGG | 0.971 ± 0.015
TTGTGCTGGA | 1.04 ± 0.029
TTGTGGAAAA | 0.953 ± 0.03
TTGTGGAAAC | 1.02 ± 0.012
TTGTGGACTT | 0.9995 ± 0.0093
TTGTGGATAA | 1.01 ± 0.0094
TTGTGGCTTA | 0.98 ± 0.036
TTGTGGGGCT | 0.9974 ± 0.009
TTGTGGGGG | 1.0016 ± 0.0009
TTGTGGGGGC | 0.991 ± 0.038
TTGTGGGGTA | 1 ± 0.023
TTGTGGGTAC | 1.0042 ± 0.0004
TTGTGGTGAC | 0.9866 ± 0.0012
TTGTGGTTCC | 1.08 ± 0.14

Sequence | switch fluorescence ratio
TTGTGTTATC | 1.01 ± 0.012
TTGTGTTGTA | 1 ± 0.042
TTGTTAATAG | 1.06 ± 0.062
TTGTTACGGA | 1.01 ± 0.017
TTGTTACGGT | 0.981 ± 0.041
TTGTTAGATT | 0.994 ± 0.031
TTGTTATAGC | 0.987 ± 0.042
TTGTTATGTG | 0.955 ± 0.024
TTGTTCAAGG | 0.981 ± 0.015
TTGTTCAGTT | 1.02 ± 0.036
TTGTTCATTT | 0.994 ± 0.012
TTGTTCTTAA | 1.05 ± 0.11
TTGTTGGGCT | 0.981 ± 0.039
TTGTTGGGGC | 1.02 ± 0.035
TTGTTGGGTT | 1.02 ± 0.061
TTGTTGTACT | 1.02 ± 0.014
TTGTTGTAGG | 0.993 ± 0.041
TTGTTGTGTT | 1.005 ± 0.0098
TTGTTGTTCC | 1.08 ± 0.063
TTGTTTAAGA | 1.03 ± 0.082
TTGTTTACTT | 1.04 ± 0.061
TTGTTTATAG | 0.985 ± 0.03
TTGTTTATGT | 0.9993 ± 0.0082

Sequence | switch fluorescence ratio
TTGTTTCAGT | 0.997 ± 0.028
TTGTTTTAGT | 1.06 ± 0.067
TTGTTTTATA | 0.9733 ± 0.0064
TTGTTTTCAT | 1.04 ± 0.018
TTGTTTTCGG | 0.961 ± 0.02
TTGTTTTGGG | 1 ± 0.019
TTGTTTTGGT | 0.966 ± 0.016
TTGTTTTTGC | 0.9959 ± 0.0089
TTTAAAAGGA | 1.01 ± 0.056
TTTAAACCCT | 1.03 ± 0.024
TTTAAAGAAA | 1.02 ± 0.016
TTTAAAGCAG | 1.01 ± 0.02
TTTAAAGGCC | 0.9682 ± 0.00099
TTTAAAGGGA | 1.06 ± 0.17
TTTAAAGTTG | 1.05 ± 0.04
TTTAAAGTTT | 0.99 ± 0.029
TTTAAATGTT | 0.991 ± 0.031
TTTAAATTGA | 0.986 ± 0.02
TTTAAATTGT | 0.99 ± 0.035
TTTAAGACGG | 0.98439 ± 0.00032
TTTAAGAGGG | 0.978 ± 0.038
TTTAAGCTAC | 4.03 ± 0.57
TTTAAGGGAT | 1 ± 0.041

Sequence | switch fluorescence ratio
TTTAAGTCTC | 1.001 ± 0.0062
TTTAAGTGCG | 1.05 ± 0.09
TTTAATAAGG | 0.9962 ± 0.0027
TTTAATACTG | 1.08 ± 0.089
TTTAATATAG | 1 ± 0.044
TTTAATATAT | 1.02 ± 0.031
TTTAATCGTT | 0.999 ± 0.014
TTTAATGATT | 1.05 ± 0.021
TTTAATGTTT | 1 ± 0.017
TTTAATTCAT | 1.008 ± 0.0088
TTTAATTGTG | 0.9891 ± 0.0082
TTTACAAATT | 1 ± 0.02
TTTACAAGT | 0.982 ± 0.035
TTTACAATGG | 1.058 ± 0.0062
TTTACAGGTA | 0.981 ± 0.021
TTTACCGGAG | 1.15 ± 0.089
TTTACCGGGA | 1.13 ± 0.15
TTTACGAAAG | 1.04 ± 0.044
TTTACGGAAC | 1.244 ± 0.0059
TTTACGGTAA | 1.15 ± 0.019
TTTACGGTTG | 0.996 ± 0.016
TTTACGTCGG | 1.02 ± 0.034
TTTACGTGTT | 0.991 ± 0.012

Sequence | switch fluorescence ratio
TTTACTAGCA | 1.04 ± 0.11
TTTACTGCCT | 1.06 ± 0.022
TTTACTGGTG | 1.13 ± 0.012
TTTACTTAGG | 1.04 ± 0.023
TTTACTTTGG | 0.982 ± 0.034
TTTACTTTTC | 1.49 ± 0.75
TTTAGACAAT | 1.02 ± 0.022
TTTAGACGGG | 0.965 ± 0.028
TTTAGACGGT | 1.02 ± 0.066
TTTAGACGTG | 0.976 ± 0.012
TTTAGAGTCC | 1.05 ± 0.098
TTTAGAGTGC | 1 ± 0.093
TTTAGATATA | 1.031 ± 0.0011
TTTAGATCTT | 0.981 ± 0.012
TTTAGATTGT | 1.01 ± 0.029
TTTAGCAGGG | 1.01 ± 0.026
TTTAGCATGG | 1.01 ± 0.047
TTTAGCGCAT | 1.04 ± 0.06
TTTAGCGTTT | 0.997 ± 0.051
TTTAGCTAGG | 1.01 ± 0.033
TTTAGCTAGT | 1.01 ± 0.032
TTTAGGAGGA | 0.997 ± 0.025
TTTAGGATTT | 0.985 ± 0.027

Sequence | switch fluorescence ratio
TTTAGGCTGG | 0.979 ± 0.022
TTTAGGCTTT | 1 ± 0.012
TTTAGGGCGG | 0.994 ± 0.017
TTTAGGGGAG | 0.994 ± 0.022
TTTAGGGTCA | 0.962 ± 0.062
TTTAGGTCAT | 1.01 ± 0.083
TTTAGGTTTT | 1.01 ± 0.021
TTTAGTACCT | 1.2 ± 0.044
TTTAGTGGGC | 0.9843 ± 0.0081
TTTAGTGGGG | 0.97 ± 0.01
TTTAGTTGTT | 1.01 ± 0.03
TTTAGTTTTT | 0.996 ± 0.042
TTTATAAAAA | 0.998 ± 0.026
TTTATAAAAT | 0.987 ± 0.039
TTTATAAGGT | 0.988 ± 0.012
TTTATAATTA | 0.982 ± 0.013
TTTATAGAAA | 1.05 ± 0.02
TTTATAGCGA | 1.63 ± 0.54
TTTATAGCGG | 0.996 ± 0.015
TTTATAGTAA | 0.98978 ± 0.00052
TTTATAGTCT | 0.99 ± 0.021
TTTATAGTGT | 0.9894 ± 0.0097
TTTATAGTTT | 1.01 ± 0.026

Sequence | switch fluorescence ratio
TTTATATGAA | 0.97 ± 0.042
TTTATATGCG | 1 ± 0.027
TTTATATTTT | 1.02 ± 0.034
TTTATCCTTT | 0.98 ± 0.025
TTTATCGGGA | 0.978 ± 0.017
TTTATCGTTG | 0.998 ± 0.025
TTTATCTGAT | 0.965 ± 0.025
TTTATGAGCT | 1.03 ± 0.014
TTTATGAGGA | 1.02 ± 0.021
TTTATGATGC | 1.011 ± 0.0092
TTTATGCACT | 1.05 ± 0.051
TTTATGCAGC | 1.12 ± 0.16
TTTATGCTGT | 0.976 ± 0.02
TTTATGGAGG | 0.991 ± 0.02
TTTATGGCTA | 1.03 ± 0.011
TTTATGGGAT | 0.986 ± 0.032
TTTATGGGCG | 1.34 ± 0.64
TTTATGTCCA | 0.9923 ± 0.0021
TTTATGTCCG | 1.04 ± 0.042
